Consider 14 molecules from patent US20180362585A1 (Bicycle, published 2018).

Experiment [1] has as its target T1, human plasma Kallikrein (human, UniProt P03952 20-638).
T1 construct: also called hPK; human PK
The experiment is described as follows: enzyme inhibition. The procedure: (§1) Functional enzyme assays were conducted in 10 mM Tris HCl, 150 mM NaCl, 10 mM MgCl2, 1 mM CaCl₂) and 1 mg/mL BSA (all Sigma UK) pH7.4 at 25° C. in solid black 96 well plates. […] Release of AMC was measured using a Pherastar FS (BMG Labtech), excitation 360 nm, emission 460 nm. The rate of the linear phase of the reaction, typically 5 to 45 minutes, was calculated in MARS data analysis software (BMG labtech). The rate was then used to calculate the IC50 and Ki in Prism (GraphPad).
Crucially, such modifications should not affect the potency against human or rat Kallikrein. An initial exploration regarding the role of the WPAR (SEQ ID No. 19) sequence/pharmacophore (FIG. 9, 10) was performed by replacing W₂P₃ with A₂A₃ or A₂Q₃ and by scrambling parts or the entire first loop of the bicycle.

In experiment [2] the target is T1, human plasma Kallikrein. The experiment is described as follows: enzyme inhibition. Here is the method:
as §1
The source holds these as a separate data set.

For another experiment, the target named is T2, rat plasma Kallikrein (rat, UniProt P14272 391-638, limits assumed).
T2 construct: domain: catalytic domain; also called rPK; rat PK
The experiment is described as follows: enzyme inhibition. The procedure: as §1

The target of experiment [3] is T1, human plasma Kallikrein. The experiment is described as follows: enzyme inhibition; ref WT. Here is the method:
as §1

Usually Ki stands for a measure of affinity in units of concentration, obtained from inhibition or displacement. Low readings indicate a stronger hold on the target, high ones a looser hold on the target. As a reminder, the IC50 is the concentration that inhibits the measured activity by half. Read a high IC50 as a need for much substance.

Where two headings read alike, the source gives them in different places. Numbered stars: 1 amine (or outer) side, 2 acyl side, 3 side chain; on linkers, the order of the positions; unused ones are H or OH. Bridge positions count the residues as written; N and C are the ends. Ends that are not written are not given here. TBMB = c1c(C[*:1])cc(C[*:3])cc1C[*:2]

T2 sequence (P14272 391-638 limits assumed): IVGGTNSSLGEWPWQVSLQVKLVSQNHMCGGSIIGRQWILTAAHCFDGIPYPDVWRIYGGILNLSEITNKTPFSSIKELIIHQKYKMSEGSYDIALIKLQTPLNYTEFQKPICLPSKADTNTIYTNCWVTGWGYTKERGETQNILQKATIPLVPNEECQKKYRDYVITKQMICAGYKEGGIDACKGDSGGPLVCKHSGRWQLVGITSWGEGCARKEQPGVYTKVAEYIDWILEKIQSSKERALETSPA
T1 sequence (P03952 20-638 limits assumed): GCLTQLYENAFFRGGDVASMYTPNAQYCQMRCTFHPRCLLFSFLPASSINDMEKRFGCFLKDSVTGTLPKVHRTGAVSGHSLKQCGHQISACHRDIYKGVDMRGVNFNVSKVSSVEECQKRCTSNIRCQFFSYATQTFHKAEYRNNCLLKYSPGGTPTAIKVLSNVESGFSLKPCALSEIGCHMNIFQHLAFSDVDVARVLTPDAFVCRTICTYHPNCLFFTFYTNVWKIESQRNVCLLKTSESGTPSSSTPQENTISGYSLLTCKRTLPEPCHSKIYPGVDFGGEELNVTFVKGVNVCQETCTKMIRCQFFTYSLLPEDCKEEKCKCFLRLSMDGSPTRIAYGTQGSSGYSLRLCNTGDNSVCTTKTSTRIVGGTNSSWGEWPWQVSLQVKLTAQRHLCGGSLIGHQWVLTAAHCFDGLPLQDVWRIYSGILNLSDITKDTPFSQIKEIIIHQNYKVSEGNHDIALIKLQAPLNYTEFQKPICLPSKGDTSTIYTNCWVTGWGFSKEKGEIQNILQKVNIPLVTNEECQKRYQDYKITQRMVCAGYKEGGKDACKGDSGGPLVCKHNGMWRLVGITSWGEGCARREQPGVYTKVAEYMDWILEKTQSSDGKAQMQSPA

B1: Ac-(06-34-18) Scram1 (peptide)
peptide: Ac-CPSAWRCLHQDLC-NH2
modifications: linker 1-7-13 via TBMB
SMILES: CC(=O)N[C@H]1CSCc2cc3cc(c2)CSC[C@H](NC(=O)[C@H](CCCNC(=N)N)NC(=O)[C@H](Cc2c[nH]c4ccccc24)NC(=O)[C@H](C)NC(=O)[C@H](CO)NC(=O)[C@@H]2CCCN2C1=O)C(=O)N[C@@H](CC(C)C)C(=O)N[C@@H](Cc1c[nH]cn1)C(=O)N[C@@H](CCC(N)=O)C(=O)N[C@@H](CC(=O)O)C(=O)N[C@@H](CC(C)C)C(=O)N[C@H](C(N)=O)CSC3
Take B1: in the experiment with human plasma Kallikrein [1], the affinity, expressed as Ki, was 1090 nM. In other words, the single-digit micromolar range.

B2: Ac-(06-34-18) Scram2 (peptide)
peptide: Ac-CWASPRCLHQDLC-NH2
modifications: linker 1-7-13 via TBMB
SMILES: CC(=O)N[C@H]1CSCc2cc3cc(c2)CSC[C@H](NC(=O)[C@H](CCCNC(=N)N)NC(=O)[C@@H]2CCCN2C(=O)[C@H](CO)NC(=O)[C@H](C)NC(=O)[C@H](Cc2c[nH]c4ccccc24)NC1=O)C(=O)N[C@@H](CC(C)C)C(=O)N[C@@H](Cc1c[nH]cn1)C(=O)N[C@@H](CCC(N)=O)C(=O)N[C@@H](CC(=O)O)C(=O)N[C@@H](CC(C)C)C(=O)N[C@H](C(N)=O)CSC3
On to B2, for which the Ki with human plasma Kallikrein [1] was found to be 11400 nM. This Ki lies about 10-fold higher than the previous one.

B3: Ac-(06-34-18) Scram3 (peptide)
peptide: Ac-CAPWSRCLHQDLC-NH2
modifications: linker 1-7-13 via TBMB
SMILES: CC(=O)N[C@H]1CSCc2cc3cc(c2)CSC[C@H](NC(=O)[C@H](CCCNC(=N)N)NC(=O)[C@H](CO)NC(=O)[C@H](Cc2c[nH]c4ccccc24)NC(=O)[C@@H]2CCCN2C(=O)[C@H](C)NC1=O)C(=O)N[C@@H](CC(C)C)C(=O)N[C@@H](Cc1c[nH]cn1)C(=O)N[C@@H](CCC(N)=O)C(=O)N[C@@H](CC(=O)O)C(=O)N[C@@H](CC(C)C)C(=O)N[C@H](C(N)=O)CSC3
B3 displayed a Ki in the experiment with human plasma Kallikrein [1] of 1890 nM. Compared with the last molecule, the Ki is about 6-fold lower.

B4: Ac-(06-34-18) A2A3 (peptide)
peptide: Ac-CSAAARCLHQDLC-NH2
modifications: linker 1-7-13 via TBMB
SMILES: CC(=O)N[C@H]1CSCc2cc3cc(c2)CSC[C@H](NC(=O)[C@H](CCCNC(=N)N)NC(=O)[C@H](C)NC(=O)[C@H](C)NC(=O)[C@H](C)NC(=O)[C@H](CO)NC1=O)C(=O)N[C@@H](CC(C)C)C(=O)N[C@@H](Cc1c[nH]cn1)C(=O)N[C@@H](CCC(N)=O)C(=O)N[C@@H](CC(=O)O)C(=O)N[C@@H](CC(C)C)C(=O)N[C@H](C(N)=O)CSC3
As for B4, the “fold reduction in binding vs wildtype” value with human plasma Kallikrein [2] is around 100000 fold. The same molecule returned an inhibition constant (Ki) with human plasma Kallikrein [1] of 18500 nM.

B5: Ac-(06-34-18) A2Q3 (peptide)
peptide: Ac-CSAQARCLHQDLC-NH2
modifications: linker 1-7-13 via TBMB
SMILES: CC(=O)N[C@H]1CSCc2cc3cc(c2)CSC[C@H](NC(=O)[C@H](CCCNC(=N)N)NC(=O)[C@H](C)NC(=O)[C@H](CCC(N)=O)NC(=O)[C@H](C)NC(=O)[C@H](CO)NC1=O)C(=O)N[C@@H](CC(C)C)C(=O)N[C@@H](Cc1c[nH]cn1)C(=O)N[C@@H](CCC(N)=O)C(=O)N[C@@H](CC(=O)O)C(=O)N[C@@H](CC(C)C)C(=O)N[C@H](C(N)=O)CSC3
Turning to B5, the “fold reduction in binding vs wildtype” value in the experiment with human plasma Kallikrein [2] was around 100000 fold. Besides, the Ki with human plasma Kallikrein [1] was 15800 nM.
Take ACSWPARCVHQDLCA (linker 2-8-14 via TBMB; not fully specified (N-terminus, C-terminus)) [06-34-01]: the half-maximal inhibitory concentration (IC50) with human plasma Kallikrein [2] was determined as 0.15 nM; in the experiment with rat plasma Kallikrein, 6.12 nM.
The matching figures for ACRWPARCLHQDLCA (linker 2-8-14 via TBMB; not fully specified (N-terminus, C-terminus)) [06-34-05]: 0.076 nM and 0.62 nM.
For the molecule ACRWPARCMHQDLCA (linker 2-8-14 via TBMB; not fully specified (N-terminus, C-terminus)) [06-34-04], the IC50 in the experiment with human plasma Kallikrein [2] was determined as 0.075 nM; with rat plasma Kallikrein, 0.56 nM.
Consider ACRWPARCTHQDLCA (linker 2-8-14 via TBMB; not fully specified (N-terminus, C-terminus)) [06-34-02], for which the half-inhibitory concentration (IC50) came out at 0.16 nM with human plasma Kallikrein [2] and 1.09 nM with rat plasma Kallikrein.
For the molecule ACSWPARCTHQDLCA (linker 2-8-14 via TBMB; not fully specified (N-terminus, C-terminus)) [06-34-03 (01 + 02)], the results for the 50% inhibitory concentration (IC50) with human plasma Kallikrein [2] and in the experiment with rat plasma Kallikrein were 0.082 nM and 0.87 nM, respectively.
ACSWPARCMHQDLCA (linker 2-8-14 via TBMB; not fully specified (N-terminus, C-terminus)) [06-34-17 (01 + 04)]: the 50% inhibitory concentration (IC50) in the experiment with human plasma Kallikrein [2] is 0.073 nM; with rat plasma Kallikrein, 0.44 nM.
In the experiment with human plasma Kallikrein [2], ACSWPARCLHQDLCA (linker 2-8-14 via TBMB; not fully specified (N-terminus, C-terminus)) [06-34-18 (01 + 05)] returned a half-inhibitory concentration (IC50) of 0.07 nM and an inhibition constant (Ki) of 0.04 nM. Also, the IC50 with rat plasma Kallikrein came out at 0.56 nM.

B6: Ac-(06-34-18) Scram4 (peptide)
peptide: Ac-CWARSPCLHQDLC-NH2
modifications: linker 1-7-13 via TBMB
SMILES: CC(=O)N[C@H]1CSCc2cc3cc(c2)CSC[C@H](NC(=O)[C@@H]2CCCN2C(=O)[C@H](CO)NC(=O)[C@H](CCCNC(=N)N)NC(=O)[C@H](C)NC(=O)[C@H](Cc2c[nH]c4ccccc24)NC1=O)C(=O)N[C@@H](CC(C)C)C(=O)N[C@@H](Cc1c[nH]cn1)C(=O)N[C@@H](CCC(N)=O)C(=O)N[C@@H](CC(=O)O)C(=O)N[C@@H](CC(C)C)C(=O)N[C@H](C(N)=O)CSC3
B6: in the experiment with human plasma Kallikrein [1], the affinity, expressed as Ki, was 67500 nM.

B7: Ac-(06-34-18) Phe2 Tyr4 Thr7 Thr8 Glu9 (peptide)
peptide: Ac-CSFPYRCLTTELC-NH2
modifications: linker 1-7-13 via TBMB
SMILES: CC(=O)N[C@H]1CSCc2cc3cc(c2)CSC[C@H](NC(=O)[C@H](CCCNC(=N)N)NC(=O)[C@H](Cc2ccc(O)cc2)NC(=O)[C@@H]2CCCN2C(=O)[C@H](Cc2ccccc2)NC(=O)[C@H](CO)NC1=O)C(=O)N[C@@H](CC(C)C)C(=O)N[C@@H]([C@@H](C)O)C(=O)N[C@@H]([C@@H](C)O)C(=O)N[C@@H](CCC(=O)O)C(=O)N[C@@H](CC(C)C)C(=O)N[C@H](C(N)=O)CSC3
notes: also called loop 2 LTTEL
The molecule B7 displayed a Ki with human plasma Kallikrein [2] of 81 nM. In addition, the “F (Kivar/KiWT)” value with human plasma Kallikrein [3] came to 193 fold.
